Results: patent US5534260A, “Percutaneous drug delivery system” (priority 1994, dated 1996)
“Also recorded” adds a separate entry of the source.

Columns and labels:
[1] = Effect of non-enzyme components in admixture with papain on penetration of 14C-TEAB (Example IV)
[2] = Skin damage / irritation by papain pretreatment; details: in words
[3] = Enhancement of acetylcholine chloride penetration through hairless mouse skin at pH 7.4 (Example III); type: in vitro ADME
Method: A percutaneous permeation enhancer having the following formula was prepared: […]
The effect of the percutaneous enhancer, as prepared in Example II above, was measured on the penetration of the quaternary compound acetylcholine chloride through hairless mouse skin at pH 7.4. […] The data below indicates a potentiating or synergistic effect in combining the agents for use as an enhancer.
Enhancement effect of 0.0465 mg/ml Sigma papain alone and in
combination with 2% Azone™ and 15% propylene glycol on the
penetration of acetylcholine chloride through hairless mouse

[4] = Fourier Transform Infrared spectroscopy of stratum corneum; design: species or system mouse; details: for Absorbance in protein areas, peak position: Table I; for FTIR peak, Amide III / FTIR peak, Shoulder Beta sheet / FTIR peak, Alpha helix peak: Table IV; for FTIR peak, Amide III: untreated 1244; for FTIR peak, Shoulder Beta sheet: untreated 1267; for FTIR peak, Alpha helix peak: untreated 1295; for Symmetric CH peak position / Asymmetric CH peak position: Table V; for Symmetric CH peak position: normal SC 2848.3; for Asymmetric CH peak position: normal SC 2916.5; for Length of 70% line, symmetric line / Length of 70% line, asymmetric line: Table VI; for Length of 70% line, symmetric line: normal SC 8.6; for Length of 70% line, asymmetric line: normal SC 17.5
Method: A. Comparisons of normal stratum corneum (from mouse skin) to stratum corneum treated with a 0.09% concentration of papain for 24 hours was performed using Fourier Transform Infrared spectroscopy (FTIR). […] It is postulated that a shift from a random form of protein to the more organized beta sheet structure occurs. The alpha-helix structures of skin protein could be fractionated, uncoiled, or both.
A comparison of symmetric and asymmetric CH stretch bands was then made. These two bands represent lipid structure and would show any changes in the stratum corneum lipids caused by the papain.
B. Azone™ was tested as a permeation enhancer with and without the presence of papain.

[5] = 14C-TEAB through pretreated skin (n = 1 for components alone, n = 2 combinations, n = 3 papain 0.0465 mg/ml 24 hours)
[6] = acetylcholine chloride, pH 7.4, pretreated skin

B1: papain: proteolytic enzyme; preferred enzyme, readily available from Sigma Chemical Company (protein, UniProt P00784 134-345, looked up)
Papain: IPEYVDWRQKGAVTPVKNQGSCGSCWAFSAVVTIEGIIKIRTGNLNEYSEQELLDCDRRSYGCNGGYPWSALQLVAQYGIHYRNTYPYEGVQRYCRSREKGPYAAKTDGVRQVQPYNEGALLYSIANQPVSVVLEAAGKDFQLYRGGIFVGPCGNKVDHAVAAVGYGPNYILIKNSWGTGWGENGYIRIKRGTGNSYGVCGLYTSSFYPVKN
drug penetration (pH 7.4): greater drug penetration
increase in absorption of TEAB (skin pretreated with papain): 3,346%
J (flux) [1, 5]: (1.33 ± 0.48) × 10^-4 mg cm^-2 s^-1
P (permeability) [1, 5]: (1.63 ± 0.59) × 10^-7 cm s^-1
E (enhancement effect) ([1]; 14C-TEAB, n = 1 components alone, n = 2 combinations, n = 3 papain): 32.93
skin damage / irritation [2]: increased damage to the skin and can cause bleeding; also recorded: damage the skin, possibly leading to bleeding
E (enhancement effect) ([3]; acetylcholine chloride, pH 7.4): 88.4
J (flux) [3, 6]: 5.67 × 10^-4 mg/cm^2 /sec
P (permeability) [3, 6]: 2.83 ×10⁻⁶ cm/s
increase in penetration of acetylcholine chloride ([3]; pH 7.4, pretreatment): eighty-eight
recovery after removal of papain ([4]; 24 hours): partial recovery
recovery after removal of papain ([4]; 48 hours): nearly complete recovery
Absorbance in protein areas, peak position ([4]; untreated SC 1244): 1236.6 cm⁻¹
Absorbance in protein areas, peak position ([4]; untreated SC 1267): 1263.7 cm⁻¹
Absorbance in protein areas, peak position ([4]; untreated SC 1295): 1288.4 cm⁻¹
Absorbance in protein areas, peak position ([4]; untreated SC 1400.5): 1403.8 cm⁻¹
Absorbance in protein areas, peak position ([4]; untreated SC 1456): 1464.7 cm⁻¹
Absorbance in lipid areas, symmetric CH peak position ([4]; Table II, untreated 2848.3): 2850 cm⁻¹
Absorbance in lipid areas, asymmetric CH peak position ([4]; Table II, untreated 2916.5): 2920 cm⁻¹
Length of the 70% line, symmetric CH ([4]; Table III, untreated 8.6): 9.1 cm⁻¹
Length of the 70% line, asymmetric CH ([4]; Table III, untreated 17.5): 17.5 cm⁻¹
FTIR peak, Amide III ([4]; 24 hr recovery after papain): 1242.4 cm⁻¹
FTIR peak, Shoulder Beta sheet ([4]; 24 hr recovery after papain): 1271.8 cm⁻¹
FTIR peak, Alpha helix peak ([4]; 24 hr recovery after papain): 1301.7 cm⁻¹
FTIR peak, Amide III ([4]; 48 hr recovery after papain): 1243.2 cm⁻¹
FTIR peak, Shoulder Beta sheet ([4]; 48 hr recovery after papain): 1268.4 cm⁻¹
FTIR peak, Alpha helix peak ([4]; 48 hr recovery after papain): 1296.5 cm⁻¹
FTIR peak, Amide III ([4]; papain treated): 1236 cm⁻¹
FTIR peak, Shoulder Beta sheet ([4]; papain treated): 1262 cm⁻¹
FTIR peak, Alpha helix peak ([4]; papain treated): 1288 cm⁻¹
Symmetric CH peak position ([4]; 48 hr recovery SC): 2849.3 cm⁻¹
Asymmetric CH peak position ([4]; 48 hr recovery SC): 2916.5 cm⁻¹
Symmetric CH peak position ([4]; papain treated SC): 2848.5 cm⁻¹
Asymmetric CH peak position ([4]; papain treated SC): 2916.3 cm⁻¹
Length of 70% line, symmetric line ([4]; 48 hr recovery SC): 10.5 cm⁻¹
Length of 70% line, asymmetric line ([4]; 48 hr recovery SC): 19.3 cm⁻¹
Length of 70% line, symmetric line ([4]; papain treated SC): 9.1 cm⁻¹
Length of 70% line, asymmetric line ([4]; papain treated SC): 17.5 cm⁻¹
change in lipid structure / CH stretch bands of stratum corneum ([4]; in words): no change in lipid structure
change in protein FTIR areas of stratum corneum ([4]; in words): significant changes occurring in the amide III, beta sheet, and alpha-helix formations of the stratum corneum cells
